Data from the nanobody polyreactivity screen of Harvey et al. (2022).

Test: yeast display, Sf9 membrane polyspecificity reagent, FACS + sequencing; frameworks hold sequencing errors
Outline: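 After 36–48 hours of galactose induction, yeast (Saccharomyces cerevisiae BJ5465) displaying a synthetic nanobody library were stained at 4 °C for 1 hour with 10% biotinylated, detergent-solubilized Sf9 membrane reagent. Streptavidin microbeads enriched the stained cells before FACS sorting into low and high (top ~1%) gates on anti-HA and streptavidin fluorescence. Each clone's polyreactivity label reflects its gate of origin.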

Sequence	polyreactivity (PSR sort gate)
QVQLVESGGGLVQAGGSLRLSCAASGSIFKVNTMGWHRQAPGTERELVAAISSSDDSTYYADSVKGRFTISRDNAKNTVYLQMNSLKPEDTAVYYCAADGSSVDSGGINDEYWGQGTQVTVSS	low polyreactivity
QVQLVESGGGLVQAGGSLRLSCAASGSIFKVNTMGWYRQAPGKERELVAAISSSDDSTYYADSVKGRFTISRDNAKNTVYLQMNSLKPEDTAVYYCAADGSSVDSGGINDEYWGQGTQVTVSS	low polyreactivity
QVQLVESGGGLVQAGGSLRLSCAASGSIFKVNTMGWYRQAPGKERELVAAISYSGGSTYYADSVKGRFTISRDHAKNTVYLQMNSLKPEDTAVYYCNVSPTTSGDGGGYDSWGQGTQVTVSS	low polyreactivity
QVQLVESGGGLVQAGGSLRLSCAASGSIFKYYAKGWYRQAPGKERELVAAITIGGNTNYADSVKGRFTISRDNAKNTVYLQMNSLKPEDTAVYYCATGGYYSAIVYGGYDYWGHGTQVTVSS	low polyreactivity
QVQLVESGGGLVQAGGSLRLSCAASGSIFKYYAMGWYRQAPGKERELLADISFGGDSTYYADSVKGRFTISRDNAKNTVYLQMNSLIPEDTAVYYCAAAPYFWFVEYDYWGQGTQVTVSS	low polyreactivity
QVQLVESGGGLVQAGGSLRLSCAASGSIFKYYAMGWYRQAPGKERELVAAINSGGDTYYADSVKGRFTISRDNAKNTVYLQMNSLKPEDTAVYYCAAYGYAGYAHRDMDYWGQGSQVTVSS	low polyreactivity
QVQLVESGGGLVQAGGSLRLSCAASGSIFKYYAMGWYRQAPGKERELVAAISSGGRTYYADSVKGRFTISRDNAKNTVYLQMNSLKPEDTAVYYCNRPPWSRGSNYWGQGTQVTVSS	high polyreactivity
QVQLVESGGGLVQAGGSLRLSCAASGSIFKYYAMGWYRQAPGKERELVAAITGSGGNTYYADSVKGRFTISRDNAKNTVYLQMNSLKPEDTAVYYCAATYWWAYVWAYSHVKSTNDYWGQGTQVTVSS	low polyreactivity
QVQLVESGGGLVQAGGSLRLSCAASGSIFKYYAMGWYRQAPGKERELVAAITSSGARTYYADSVKGRFTISRDNAKNTVYLQMNSLKPEDTAVYYCRGYVRDQSKYDYWGQGTQVTVSS	high polyreactivity
QVQLVESGGGLVQAGGSLRLSCAASGSIFKYYTMGWYRQAPGKDRELVAAISSGGSTTYADSVKGRFTISRDNAKNSVYLQMNSLKPEDTAVYCCAAGYGYPTFVERDYWGHGTQVTVSS	high polyreactivity
QVQLVESGGGLVQAGGSLRLSCAASGSIFLENTMGWYRQAPGKERELVAAITSSGDSTYADSVKGRFTISRDNAKNTVYLQMNSLKPEDTAVYYCNKDYDDIAPTRAVLDRYDYWGQGTQVTVSS	low polyreactivity
QVQLVESGGGLVQAGGSLRLSCAASGSIFLFYTMGWYRQAPGKERELVASSSGGGTHYADSVKGRFTISRDNAKNTVYLQMNSLKPEDTAVYYCATPNKNGQNLGGVWEAYDYWGQGTQVTVSS	low polyreactivity
QVQLVESGGGLVQAGGSLRLSCAASGSIFLFYTMGWYRQATGKERELVAAISYSGGNTYYADSVKGRFTISRDNATNTVYLQMNSLKPEDTAVYYCNVRTQWARYDYWRQGTQVTVSS	high polyreactivity
QVQLVESGGGLVQAGGSLRLSCAASGSIFLGNAMGWYRQAPGKESELVAAISSITGRTYYADSVKGRFTISRDNAKNTVYLQMNSLKPEDTAVYYCNKVKRSFIVNTDDYWGQGTQVTVSS	high polyreactivity
QVQLVESGGGLVQAGGSLRLSCAASGSIFLGYAMGWYRQAPGKERELVATITSSGSTSYADSVKGRFTISRDNAKNTVYLQMKSLKPEDTAVYFCNTDLFQYGVNHYEYWGQGTQVTVSS	high polyreactivity
QVQLVESGGGLVQAGGSLRLSCAASGSIFLHNAMGWYRQAPGKERELVAGITSSGTSTYYADSVKGRFTISRDNEKNTVYLQMNSLKPEDTAVYYCAAYRYGSRGGYCGQGTQVTVSS	high polyreactivity
QVQLVESGGGLVQAGGSLRLSCAASGSIFLHNAMGWYRQAPGKERELVAVITSRGGSTYYADSVKGRLTISRDNAKNTVYLQMKSLKPEDTAVYYCAAPAYHKRTSRGDYWGQGTQVTVSS	low polyreactivity
QVQLVESGGGLVQAGGSLRLSCAASGSIFLHYAMGWYRQAPGKERELVAAISRSGGRTYYADSVKGRFTISRDNAKNTVYLQMNSLKPEDTAVYYCAARVPRYRKDSVWAYYYWGQGPQVTVSS	high polyreactivity
QVQLVESGGGLVQAGGSLRLSCAASGSIFLINAMGWYRPAPGKERELVAAITWSGGRTYYADSVKGRFTISRDNAKNTVYLQMNSLKPEDTAVYYCATRKRRSRPPTYDYWGQGTQVTVSS	high polyreactivity
QVQLVESGGGLVQAGGSLRLSCAASGSIFLIYAMGWYRQAPGKERELVATINRGDNTYYADSVKGRFTISRDNAKNTVYLQMNSLKPEDTAVYYCAARAYDLGYAGYDYWGQGTQVTVSS	low polyreactivity
QVQLVESGGGLVQAGGSLRLSCAASGSIFLIYARGSYRQAPGKERELVAAISGRVGSTYYADSVKGRFTISRDNAINTVYLQMNSLKPEDTAVYYCAARNSYGNWRYYYWGQGTQVTVSS	high polyreactivity
QVQLVESGGGLVQAGGSLRLSCAASGSIFLKYVMGWYRQAPGKERELVAAISFRSGSTYYADSVKGRFTISRDNAKNTVYLQMNSLKPEDTAVYYCAADAWRSYGYRAYDYWGQGTQVTVSS	high polyreactivity

Sequence	polyreactivity (PSR sort gate)
QVQLVESGGGLVQAGGSLRLSCAASGSIFLLYAMGWYSQAPGKVRELVAAISRSGDSTHYADSVKGRFTISRDNAKNTVYLQMNSLKPEDTAVYYCAADGYDPYGGLYDYWGQGTQVTVSS	low polyreactivity
QVQLVESGGGLVQAGGSLRLSCAASGSIFLQNAMGWYRQAPGKERELVAAITNGGSTNYADSVKGRFTISRDNAKHTVYLQLNSLKPEDTAVYYCAAYPLYTGSYDRGGYWGQGTQVTVSS	low polyreactivity
QVQLVESGGGLVQAGGSLRLSCAASGSIFLQNAMGWYRQAPGKERELVAAITNGGSTNYADSVKGRFTISRDNAKNTVYLQMNSLKPEDTAVYYCAAYPLYTGSYDRGGYWGQGTQVTVSS	low polyreactivity
QVQLVESGGGLVQAGGSLRLSCAASGSIFLRNAMGWSRQAPGKERELVAAISRSGGRTYYADSVKGRFTISRDNAKNTVYLQMNSLKPEDTAVYYCAADWADKYTGRYDYWGQGTQVTVSS	high polyreactivity
QVQLVESGGGLVQAGGSLRLSCAASGSIFLSNAMGWYRQAPGKERELVAAISRRGASTYYADSVKGRFTISRDNAKNTVYFQMNSLKPEDTAVYYCAALSYSAYGYNYWGQGTQVTVSS	high polyreactivity
QVQLVESGGGLVQAGGSLRLSCAASGSIFLTNVMGWYRQAPGKERELVAAISSGGNTYYADSVKGRFTISRDNAKNTVYLQMNSLKPEDTAVYYCAVRYRYDYWGQGTQVTVSS	high polyreactivity
QVQLVESGGGLVQAGGSLRLSCAASGSIFLTYTMGWYRQAPGKERELVAGISSRGGGTYYADSVKGRFTISRDNAKNTVYLQMNSLKPEDTAVYYCAAAIGYPHYWGRRKFYYWGQGTQVTVSS	low polyreactivity
QVQLVESGGGLVQAGGSLRLSCAASGSIFLVNAMGWYRQAPGERKELVAAISWSSGSTYYADSVKGRFTNSRDNAKNTVYLQMNSLKPEDTAVYYCAKRSSITYRYDYWGQGTQVTVSS	high polyreactivity
QVQLVESGGGLVQAGGSLRLSCAASGSIFLVYALGWYRQAPGKERELVATITRGGGTYYADSVKGRFTISGDNAKNTVYLQMNSLKPEDTAVSYCAYPLSRTWGNYLAWSYPRDDSWGQGTQVTVSS	high polyreactivity
QVQLVESGGGLVQAGGSLRLSCAASGSIFLVYAMGWYRQAPGKERELVAAIRWSGGSTYYADSVKGRFTISRDNAKNTVYLQMNSLKPEDTAVYYCNAGESYSVKGGPYDSDYWGQGTQVTVSS	low polyreactivity
QVQLVESGGGLVQAGGSLRLSCAASGSIFLWNAKGWYRQAPGKERELVAAISSGTSTNYADSVKGRFTISRDNAKNTVYLQMNSLKPEDTAVYYCAARGRKNQRRYGYWGQGTQVTVSS	low polyreactivity
QVQLVESGGGLVQAGGSLRLSCAASGSIFLYNAMGWYRQAPGKERELVADISWSGGSTYYADSVKGRFTISRDNAKNTVYLQMNSLKPEDTAVYYCNAVVYWFSTSYVYTYDYWGQGTQVTVSS	high polyreactivity
QVQLVESGGGLVQAGGSLRLSCAASGSIFLYNTMGWYRQAPGKERELVAAITSGGNTNYADSVKGRFTISRDNAKNTVYLQMHSLKPEDTAVYYCNVDLKAWLPDGGSVDYWGQGTQVTVSS	low polyreactivity
QVQLVESGGGLVQAGGSLRLSCAASGSIFLYNTMGWYRQAPGKERELVAAITYSGGSTYYADSVKGRFTISRDNAKNTVYLQMNSLKPEDTAVYYCAARRLPRKERKLYYWGQGTQVTVSS	high polyreactivity
QVQLVESGGGLVQAGGSLRLSCAASGSIFLYYAMGWYIQATGKERELVATITSGGRTSYADSVKGRFTISRDNAKNTVYLKMNSLKPEDTAVYYCAGRYGWFTPYDYWGQGTQVTVSS	high polyreactivity
QVQLVESGGGLVQAGGSLRLSCAASGSIFLYYAMGWYRQAPGKERELVAAITGGGGTNYADSVKGRFTISRDNAKNTVYLQMNSLKPEDTAVYYCAADPSGQFPYSYYNYDYDYWGQGTQVTVSS	low polyreactivity
QVQLVESGGGLVQAGGSLRLSCAASGSIFLYYTMGWYRQAPGKERELVAAITWGGGTTYYADSVKGRFTISRDNAKNTVYLQMNSLKPEDTAVYYCAAEGSYPRMDYWGQGTQVTVSS	low polyreactivity
QVQLVESGGGLVQAGGSLRLSCAASGSIFLYYTMGWYRQAPGKEREMVAAITSGSSTNYADSVKGRFTISRDNAKNTVYLQMNSLKPEDTAVYYCATQYTLSYPSIDFDYWGQGTQVNVSS	low polyreactivity
QVQLVESGGGLVQAGGSLRLSCAASGSIFLYYTMGWYRQEPGKERELVAAITWSGASTYYADSVKGRFTISRDNAKNTVYLQMNSLKPEDTAVYYCATRYRYRYWGQGTQVTVSS	high polyreactivity
QVQLVESGGGLVQAGGSLRLSCAASGSIFNANAMGWYRQAPGKERELVAGIRSGSSTNYADSEKGRFTISRDNAKNTVYLQMNSLKPEDTAVYYCATEGYWVYGFDDEYWGQGTQVTVSS	low polyreactivity
QVQLVESGGGLVQAGGSLRLSCAASGSIFNAYDMGWYRQAPGKERELVAGISSSDSTYYADSVKGRFTISRDNAKNTVYLQMNSLKPEDTAVYYCAADPVFAAAYIHLYGIYDSWGQGTQVTVSS	low polyreactivity
